Patent US20170015742A1 (published 2017)
Residue numbers refer to the chain shown, from its start.

B1: hBEW-5C3.3 (antibody, V domains shown)
VH: EVQLVQSGAEVKKPGSSVKVSCKASGYTFTNYGVYWVRQAPGQGLEWMGWINTETGKPTYADDFKGRFTFTLDKSTSTAYMELSSLRSEDTAVYYCARARQLDWFVYWGQGTLVTVSS
VL: DTVLTQSPATLSLSPGERATLSCRARESLTTSLSWFQQKPGQQPRLLIYGASKLESGVPARFSGSGSGTDFTLTISSLEPEDFAVYFCQQSWYDPPTFGGGTKVEIK
B2: hBEW-5C3.6 (antibody, V domains shown)
VH: B1 VH
VL: DTQLTQSPSSLSASVGDRVTISCRARESLTTSLSWFQQKPGKQPKLLIYGASKLESGVPSRFSGSGSGTDFTLTISSLQPEDFATYFCQQSWYDPPTFGGGTKVEIK
B3: hBEW-5C3.5 (antibody, V domains shown)
VH: B1 VH with V2I, R38K, W47Y, Y95F
VL: B2 VL
B4: hBEW-9E10.1 (antibody, V domains shown)
VH: EIQLVQSGSELKKPGASVKVSCKASGYTFTNYGMYWVKQAPGQGLEYMGWIDTETGRPTYADDFKGRFVFSLDTSVSTAYLQISSLKAEDTAVYFCARWSGDTTGIRGPWFAYWGQGTLVTVSS
VL: DIRMTQSPSSLSASVGDRVTIECLASEDIYSDLAWYQQKPGKSPKLLIYNANGLQNGVPSRFSGSGSGTDYSLTISSLQPEDVATYFCQQYNYFPGTFGQGTKLEIK
B5: hBEW-9E10.2 (antibody, V domains shown)
VH: EIQLVQSGAEVKKPGSSVKVSCKASGYTFTNYGMYWVKQAPGQGLEYMGWIDTETGRPTYADDFKGRFTFTADKSTSTAYMELSSLRSEDTAVYFCARWSGDTTGIRGPWFAYWGQGTLVTVSS
VL: B4 VL
B6: hBEW-9E10.4 (antibody, V domains shown)
VH: B4 VH
VL: B4 VL with E22T, S72T
B7: hBEW-9E10.6 (antibody, V domains shown)
VH: B5 VH with I2V, K38R, Y47W, F95Y
VL: B4 VL with E22T, S72T
B8: hBEW-9E10.3 (antibody, V domains shown)
VH: B5 VH with I2V, K38R, Y47W, F95Y
VL: B4 VL
B9: hBEW-9E10.5 (antibody, V domains shown)
VH: B5 VH
VL: B4 VL with E22T, S72T
B10: hBEW-9A8.17 (antibody, V domains shown)
VH: EIQLVQSGSELKKPGASVKVSCKASGYTFTNYGMYWVKQAPGQGLEYMGWINTETGKPIYADDFKGRFVFSLDTSVSTAYLQISSLKAEDTAVYYCARVDYDGSFWFAYWGQGTLVTVSS
VL: ETVLTQSPATLSLSPGERATLSCRASESVSTVIHWYQQKPGQQPRLLIHGASNLESGVPARFSGSGSGTDFTLTISSLEPEDFAVYFCQQHWNDPPTFGQGTKLEIK
B11: hBEW-9A8.21 (antibody, V domains shown)
VH: EIQLVQSGAEVKKPGASVKVSCKASGYTFTNYGMYWVRQAPGQGLEWMGWINTETGKPIYADDFKGRFTFTLDTSTSTAYMELRSLRSDDTAVYYCARVDYDGSFWFAYWGQGTLVTVSS
VL: B10 VL
B12: hBEW-9A8.20 (antibody, V domains shown)
VH: B11 VH with R38K, W47Y
VL: B10 VL
B13: hBEW-5C3.4 (antibody, V domains shown)
VH: EIQLVQSGSELKKPGASVKVSCKASGYTFTNYGVYWVKQAPGQGLEYMGWINTETGKPTYADDFKGRFVFSLDTSVSTAYLQISSLKAEDTAVYYCARARQLDWFVYWGQGTLVTVSS
VL: B2 VL
B14: chBEW-10H2 (antibody, human IgG1, kappa, L234A L235A, V domains shown)
VH: QIQLVQSGPELKKPGESVKISCKASGYSFTNFGLYWVKQAPGQGLQYMGWIDTETGKPTYADDFRGRFVFFLETSASTAYLQINNLKNEDMATYFCARVYGYPSWYFDFWGPGTMVTVSS
VL: DIQMTQSPASLSTSLEEIVTITCQASQDIDNYLSWYQQKPGKSPQLLIHSATSLADGVPSRFSGSRSGTQFSLKIHRLQVEDTGIYYCLQHFFPPWTFGGGTKLELKR
notes: also called chBEW-10H2-B9
B15: chBEW-1B4 (antibody, human IgG1, kappa, L234A L235A, V domains shown)
VH: QIQLVQSGPELKKPGESVKISCKASGYSFTNYGMYWVKQAPGQGLQYMGWIDTETGKPTYTDDFKGRFVFFLETSASTAYLQINNLKNEDMATYFCARWSGDTAGIRGPWFAYWGQGTLVTVSS
VL: DIRMTQSPASLSASLGETVNIECLASEDIYSDLAWYQQKPGKSPQLLIYNANDLQKGVPSRFSGSGSGTQYSLKINSLQSEDVATYFCQQYNYYPGTFGAGTKLELKR
notes: also called chBEW-1B4-C4
B16: chBEW-1E3 (antibody, human IgG1, kappa, L234A L235A, V domains shown)
VH: QIQLVQSGPELKKPGESVKISCKASGYPFTNSGMYWVKQAPGQGLQYMGWINTEAGKPTYADDFKGRFVFFLETSASTAYLQINNLKNEDMATYFCARWGYISDNSYGWFDYWGQGTLVTVSS
VL: DTVLTQSPALAVSPGERVSISCRASEGVYSYMHWYQQNPGQQPKLLIYKASNLASGVPARFSGSGSGTDFTLTIDPVEADDTATYFCHQNWNDPLTFGSGTKLEIKR
notes: also called chBEW-1E3-D6
B17: chBEW-3A1 (antibody, human IgG1, kappa, L234A L235A, V domains shown)
VH: QVQLEQSGAELVKPGTSVKLSCMASGYTSSSNHMNWMKQTTGQGLEWIGIINPGSGGTRYNVKFEGKATLTVDKSSSTAFMQLNSLTPEDSAVYYCARAGFPGPFSYYAMGAWGQGTSVTVSS
VL: DIQMTQSPPVLSASVGDRVTLSCKASQNIHNNLDWYQQKHGEAPKLLIFYTNNLQTGIPSRFSGSGSGTDYTLTISSLQPEDVATYYCYQYNSGYTFGAGTKLELKR
notes: also called chBEW-3A1-D10-G9
B18: chBEW-5C3 (antibody, human IgG1, kappa, L234A L235A, V domains shown)
VH: QIQLVQSGPELKKPGESVKISCKASGYTFTNYGVYWVKQAPGQGLQYMGWINTETGKPTYADDFKGRFVFFLETSTNTAYLQINNLKNEDMATFFCARARQLDWFVYWGQGTLVTVSS
VL: DTVLTQSPALTVSPGERVSISCRARESLTTSLCWFQQKPGQQPKLLIYGASKLESGVPARFSGSGSGTDFTLTIDPVEADDTATYFCQQSWYDPPTFGGGTKLELKR
notes: also called chBEW-5C3-E7
B19: chBEW-1B10 (antibody, human IgG1, kappa, L234A L235A, V domains shown)
VH: EVQLVESGGGLVQPGRSLKLSCAASGFSFSKYDMAWFRQTPTKGLEWVASITTSGVGTYYRDSVKGRFTVSRDNAKSTLYLQMDSLRSEDTATYYCARGYGAMDAWGQGTSVTVSS
VL: DIQMTQSPASLSASLEEIVTITCKASQDIDDYLSWYQQKPGKSPQLVIYAATRLADGVPSRFSGSGSGTQYSLKISRLQVDDSGIYYCLQSSSTPWTFGGGTNLELKR
notes: also called chBEW-1B10-B9-C3
B20: chBEW-8E6 (antibody, human IgG1, kappa, L234A L235A, V domains shown)
VH: QIQLVQSGPELKKPGESVKISCKASGYTFTDYAMHWVKQAPGKVLKWMGWINTFTGKPTYIDDFKGRFVFSLEASASTANLQISDLKNEDTATYFCARGNYYSGYWYFDFWGPGTMVTMSS
VL: DIQMTQSPASLSASLGETISIECRASEDISSNLAWYQQKSGKSPQLLIFAANRLQDGVPSRFSGSGSGTQFSLKISGMQPEDEGDYFCLQGSKFYTFGAGTKLELKR
notes: also called chBEW-8E6-E4
B21: chBED-4G10-C8 (antibody, human IgG1, kappa, L234A L235A, V domains shown)
VH: QVQLQQSGTELVKPGSSVKISCKASGYTFTSNYMHWIRQQPGNGLEWIGWIYPGDGDTNYNHNFNGKATLTADKSSSTAYMQLSSLTSEDFAVYFCASSTRAIPGWFTYWGQGTLVTVSS
VL: DTVLTQSPALAVSPGERVSISCWASESVSTLMHWYQQKLGQQPKLLIYGASNLESGVPARFRGSGSGTDFTLTIDPVEADDTATYFCQQSWSDPYTFGAGTKLELKR

Target: Human VEGF-A 165 (human, UniProt P15692 207-395)
Assay: cell-based or functional assay
Target sequence in this assay (P15692 other isoform, or with tags, fused parts or gaps limits assumed): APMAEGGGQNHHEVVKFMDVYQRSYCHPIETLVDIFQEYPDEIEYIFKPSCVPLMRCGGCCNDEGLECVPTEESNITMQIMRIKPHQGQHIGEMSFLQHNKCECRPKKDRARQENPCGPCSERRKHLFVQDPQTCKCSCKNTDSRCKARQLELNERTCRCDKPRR

Point of comparison: B13, “hVEGF165 IC50 (nM), HMVEC-d proliferation” value 0.098 nM. Against it:
- B1 — higher, > 2 nM
- B2 — higher, > 2 nM
- B3 — within 1.5-fold, 0.123 nM
- B4 — 1.5-fold lower, 0.064 nM
- B5 — 1.8-fold higher, 0.181 nM
- B6 — within 1.5-fold, 0.071 nM
- B7 — within 1.5-fold, 0.068 nM
- B8 — 1.6-fold lower, 0.062 nM
- B9 — 2.3-fold higher, 0.229 nM
- B10 — 1.7-fold lower, 0.059 nM
- B11 — within 1.5-fold, 0.09 nM
- B12 — 1.5-fold lower, 0.064 nM

Target: T1, Human VEGF-A 165 (human, UniProt P15692 207-395)
T1 construct: Recombinant human VEGF165; also called huVEGF-A165; hVEGF165
Assay: SPR (Biacore), antibody captured by anti-human Fc, hVEGF165 as analyte
Experimental: For example, approximately 9000 RU of goat anti-human Fc specific polyclonal antibody (Thermo Fisher Scientific Inc., Rockford, Ill.) diluted in 10 mM sodium acetate (pH 4.5) is directly immobilized across a CM5 research grade biosensor chip using a standard amine coupling kit according to manufacturer's instructions and procedures at 25 μg/ml. Unreacted moieties on the biosensor surface were blocked with ethanolamine. For kinetic analysis, rate equations derived from the 1:1 Langmuir binding model were fitted simultaneously to multiple antigen injections (using global fit analysis) with the use of Scrubber 2 (BioLogic Software), Biacore Biaevaluation 4.0.1 software or Biacore T100 Evaluation software. Purified antibodies or DVD-Ig molecules were diluted in running buffer for capture across goat anti-human Fc reaction surfaces. Antibodies or DVD-Ig molecules to be captured as a ligand (1 μg/ml) were injected over reaction matrices at a flow rate of 10 μl/minute. During the assay, all measurements were referenced against the capture surface alone (i.e., with no captured antibody or DVD-Ig molecule). […] The equilibrium dissociation constant KD (M) of the reaction between antibodies and the target antigen was then calculated from the kinetic rate constants by the following formula: KD=Koff/Kₒₙ. Binding was recorded as a function of time and kinetic rate constants were calculated.
T1 sequence (P15692 other isoform, or with tags, fused parts or gaps): as the sequence (P15692 other isoform, or with tags, fused parts or gaps limits assumed) above

Point of comparison: B17, Kd 0.023 nM. Against it:
- B14 — 1.8-fold lower, 0.013 nM
- B15 — 2.1-fold lower, 0.011 nM
- B16 — 2.1-fold lower, 0.011 nM
- B18 — 1.9-fold lower, 0.012 nM
- B19 — 2.4-fold lower, 0.0094 nM
- B20 — within 1.5-fold, 0.016 nM
- B21 — 26-fold higher, 0.59 nM

Point of comparison: B20, kon 6.2e+06 M⁻¹ s⁻¹. Against it:
- B14 — 4.5-fold higher, 2.8e+07 M⁻¹ s⁻¹
- B15 — 1.8-fold higher, 1.1e+07 M⁻¹ s⁻¹
- B16 — within 1.5-fold, 7.2e+06 M⁻¹ s⁻¹
- B17 — 5.6-fold higher, 3.5e+07 M⁻¹ s⁻¹
- B18 — within 1.5-fold, 6.8e+06 M⁻¹ s⁻¹
- B19 — within 1.5-fold, 5.5e+06 M⁻¹ s⁻¹
- B21 — 1.6-fold higher, 1e+07 M⁻¹ s⁻¹
